Test [1] has as its target T1, human Tumor Necrosis Factor alpha (human, UniProt P01375 77-233). Put plainly: cell-based or functional assay.
Test [2] has as its target T2, mouse TNF-alpha (mouse, UniProt P06804 80-235).
T2 sequence (looked up): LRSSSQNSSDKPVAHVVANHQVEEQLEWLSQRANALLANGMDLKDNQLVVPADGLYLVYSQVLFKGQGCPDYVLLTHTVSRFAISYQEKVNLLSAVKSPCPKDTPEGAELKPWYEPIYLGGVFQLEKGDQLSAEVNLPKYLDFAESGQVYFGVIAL
Put plainly: cell-based or functional assay.

Test [3] has as its target T1, human Tumor Necrosis Factor alpha. Put plainly: in vitro receptor binding assay: biotinylated human TNF-alpha pre-incubated with VHH, binding to coated Enbrel.

Numbering of substitutions follows the chain as printed. Numbers in names are those of the source.

T1 sequence (P01375 77-233 limits assumed): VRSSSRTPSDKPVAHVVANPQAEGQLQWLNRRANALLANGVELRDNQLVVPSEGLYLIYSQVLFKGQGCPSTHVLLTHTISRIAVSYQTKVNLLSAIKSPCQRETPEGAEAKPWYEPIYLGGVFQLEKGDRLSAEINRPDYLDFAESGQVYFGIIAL

B1: TETRA 3E (VHH)
chain: QVQLQESGGGLVQPGGSLRLSCAASGRTFSDHSGYTYTIGWFRQAPGKEREFVARIYWSSGNTYYADSVKGRFAISRDIAKNTVDLTMNNLEPEDTAVYYCAARDGIPTSRSVESYNYWGQGTQVTVSSEPKTPKPQPAAAQVQLQESGGGLVQPGGSLRLSCAASGRTFSDHSGYTYTIGWFRQAPGKEREFVARIYWSSGNTYYADSVKGRFAISRDIAKNTVDLTMNNLEPEDTAVYYCAARDGIPTSRSVESYNYWGQGTQVTVSSEPKTPKPQPAAAQVQLQESGGGLVQPGGSLRLSCAASGRTFSDHSGYTYTIGWFRQAPGKEREFVARIYWSSGNTYYADSVKGRFAISRDIAKNTVDLTMNNLEPEDTAVYYCAARDGIPTSRSVESYNYWGQGTQVTVSSEPKTPKPQPAAAQVQLQESGGGLVQPGGSLRLSCAASGRTFSDHSGYTYTIGWFRQAPGKEREFVARIYWSSGNTYYADSVKGRFAISRDIAKNTVDLTMNNLEPEDTAVYYCAARDGIPTSRSVESYNYWGQGTQVTVSS
On to B1, for which the “IC50, cell based assay using KYM cells (TNF-alpha 1.29 ng/ml)” value (shortened to “IC50, cell based assay using KYM cells”) in test [1] is 6000 nM.

B2: VHH#m4B (VHH)
VHH: QVQLQDSGGGLVQAGGSLRLSCGVSGLSFSGYTMGWFRQAPGKEREFAAAIGWNSGTTEYRNSVKGRFTISRDNAKNTVYLQMNSLKPEDTAVYYCAASPKYMTAYERSYDFWGQGTQVTVSS
Consider B2, for which the “relative potency, MTT cytotoxicity assay with the murine cell line L929” value in test [2] was determined as 10 fold.

B3: VHH#m9E (VHH)
VHH: EVQLVESGGGLVQAGGSLRLSCAASGGTLSSYITGWFRQAPGKEREFVGAVSWSSSTIVYADSVEGRFTISRDNHQNTVYLQMDSLKPEDTAVYYCAARPYQKYNWASASYNVWGQGTQVTVSS
Regarding B3, the “IC50, MTT cytotoxicity assay with L929 cells (mouse TNF-alpha 65 pg/ml)” value (from here on “IC50, MTT cytotoxicity assay”) in test [2] was determined as 25 nM.

B4: VHH#12B (VHH)
VHH: QVQLQESGGGLVQPGGSLRLSCAASGFEFENHWMYWVRQAPGKGLEWVSTVNTNGLITRYADSVKGRFTISRDNAKYTLYLQMNSLKSEDTAVYYCTKVLPPYSDDSRTNADWGQGTQVTVSS
As usually defined, the IC50 is the point on the concentration scale where inhibition reaches its midpoint. B4 had an IC50 in test [3] of 66 nM.

B5: VHH#12B Q1E + Q5L + A74S + Y76N + K83R + P84A (VHH)
VHH: B4 VHH with Q1E, Q5L, A75S, Y77N, K87R, S88A
notes: Made by site-directed mutagenesis and purified on TALON; The tags are not described for the mutant; also called mutant Q1E+Q5L+A74S+Y76N+K83R+P84A; mutant 1E+Q5LA74S+Y76N+K83R+P84A
On to B5, for which, in test [3], the IC50 was 200 nM and the “fold increase of IC50 against wild type VHH#12B” value stood at 3 fold.

B6: TRI 3E (VHH)
chain: QVQLQESGGGLVQPGGSLRLSCAASGRTFSDHSGYTYTIGWFRQAPGKEREFVARIYWSSGNTYYADSVKGRFAISRDIAKNTVDLTMNNLEPEDTAVYYCAARDGIPTSRSVESYNYWGQGTQVTVSSEPKTPKPQPAAAQVQLQESGGGLVQPGGSLRLSCAASGRTFSDHSGYTYTIGWFRQAPGKEREFVARIYWSSGNTYYADSVKGRFAISRDIAKNTVDLTMNNLEPEDTAVYYCAARDGIPTSRSVESYNYWGQGTQVTVSSEPKTPKPQPAAAQVQLQESGGGLVQPGGSLRLSCAASGRTFSDHSGYTYTIGWFRQAPGKEREFVARIYWSSGNTYYADSVKGRFAISRDIAKNTVDLTMNNLEPEDTAVYYCAARDGIPTSRSVESYNYWGQGTQVTVSS
On to B6, for which, in test [1], the “IC50, cell based assay using KYM cells” value was 20000 nM.

B7: BIV 3E (VHH)
chain: QVQLQDSGGGLVQAGGSLRLSCAASGGTFSSIIMAWFRQAPGKEREFVGAVSWSGGTTVYADSVLGRFEISRDSARKSVYLQMNSLKPEDTAVYYCAARPYQKYNWASASYNVWGQGTQVTVSSEPKTPKPQPAAAQVQLQDSGGGLVQAGGSLRLSCAASGGTFSSIIMAWFRQAPGKEREFVGAVSWSGGTTVYADSVLGRFEISRDSARKSVYLQMNSLKPEDTAVYYCAARPYQKYNWASASYNVWGQGTQVTVSS
On to B7, for which, in test [1], the “IC50, cell based assay using KYM cells” value was determined as 0.03 nM and the “fold lower IC50 than the monomer VHH#3E, cell based assay using KYM cells” value amounted to 400 fold.

B8: BIV#m3F (VHH)
chain: B7 chain
In the case of B8, in test [2], the “IC50, MTT cytotoxicity assay” value is 2000 nM and the “fold change of IC50 against monovalent 3F, MTT cytotoxicity assay with L929 cells” value worked out at 1000 fold.

B9: VHH#m3F (VHH)
VHH: QVQLQDSGGGLVQAGGSLRLSCAASGGTFSSIIMAWFRQAPGKEREFVGAVSWSGGTTVYADSVLGRFEISRDSARKSVYLQMNSLKPEDTAVYYCAARPYQKYNWASASYNVWGQGTQVTVSS
On to B9, for which, in test [2], the “IC50, MTT cytotoxicity assay” value stood at 2 nM and the “relative potency, MTT cytotoxicity assay with the murine cell line L929” value is 10 fold.

These data come from US20110027281A1 (Ablynx, published 2011).
